For this assay, the target named is CXCR4 on human Jurkat cells (Homo sapiens (endogenous, Jurkat cells), UniProt P61073). Briefly: flow cytometry on cells. On the technique in general: Flow cytometry measures light scatter and fluorescence of single cells or particles in a stream.
CXCR4 on human Jurkat cells, sequence (P61073 whole entry): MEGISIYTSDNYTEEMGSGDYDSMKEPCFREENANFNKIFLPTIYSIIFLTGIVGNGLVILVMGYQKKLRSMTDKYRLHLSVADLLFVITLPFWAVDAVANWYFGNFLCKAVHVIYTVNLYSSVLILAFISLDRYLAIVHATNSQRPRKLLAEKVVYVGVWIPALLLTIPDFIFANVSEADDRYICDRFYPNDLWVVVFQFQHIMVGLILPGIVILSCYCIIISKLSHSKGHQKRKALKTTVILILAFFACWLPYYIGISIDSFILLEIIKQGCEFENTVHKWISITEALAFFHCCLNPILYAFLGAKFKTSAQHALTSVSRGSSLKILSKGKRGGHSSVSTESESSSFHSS

B1: bovine antibody BLV1H12 (antibody)
VH: QVQLRESGPSLVKPSQTLSLTCTASGFSLSDKAVGWVRQAPGKALEWLGSIDTGGNTGYNPGLKSRLSITKDNSKSQVSLSVSSVTTEDSATYYCTSVHQETKKYQSCPDGYRERSDCSNRPACGTSDCCRVSVFGNCLTTLPVSYSYTYNYEWHVDVWGQGLLVTVSS
VL: QAVLNQPSSVSGSLGQRVSITCSGSSSNVGNGYVSWYQLIPGSAPRTLIYGDTSRASGVPDRFSGSRSGNTATLTISSLQAEDEADYFCASAEDSSSNAVFGSGTTLTVL
In the case of B1, the binding result is “no binding (tested: 1 μg/mL)”.

Values taken from PMC4120998 (Journal of the American Chemical Society, 2014).
